Assay results taken from article PMC6045629.

Target: sc E183-HLA-A2 A245V (HBV | human)

CD8 coreceptor (from UniProt P01732 22-235)
reduction of IFN-γ production of human E183 CTL after 3 h with T-REx CHO cells expressing the mutant antigen: 25%
